Test results as given in the RNAGym collection of RNA variant scans (doi:10.1073/pnas.2313332121).

B1: TPR t1 (parent)
chain: GACCAAUCUGCCCUCAGAGCUCGAGAACAUCUUCGGAUGCAGAGGAGGCAGGCUUCGGUGGCGCGAUAGCGCCAACGUCCUCAACCUCCAAUGCAUCCCACCACAUGAUGAUGCCUGAAGAGCCUUGGUUUUUUG

Variants of: B1
Assay: polymerase ribozyme fitness, log enrichment relative to wild type (log ratio); higher = more active; in vitro selection for triplet polymerase activity
In short: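 Each subunit of a heterodimeric triplet polymerase ribozyme was mutagenized into a library by PCR, transcribed, and subjected to one round of in vitro selection, run in triplicate. Libraries were annealed with a biotinylated primer, the partner subunit and triplets, incubated frozen at −7 °C, and extended constructs were gel-excised, captured on streptavidin beads and recovered by RT-PCR. Input and output libraries were sequenced on Illumina, keeping genotypes with ≥10 input reads and ≥1 read per output. Fitness is log base 2 of genotype enrichment divided by wild-type enrichment, from inverse-variance-weighted replicate averages.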

Row | Variant | polymerase ribozyme fitness (log ratio)
1 | U130A | -0.523
2 | U130G | -0.361
3 | U130C | 0.0585
4 | U129C G135U | -0.0345
